Laboratory results: US20100092982A1 (University of California, published 2010)

T1: CARM1 fused to Gal4AD (pGAD10.CARM1) (mouse, UniProt Q4AE70 3-651 (rat entry))
T1 construct: Yeast two-hybrid prey; also called CARM1-AD hybrid protein; CARM1(3-608)
T1 sequence: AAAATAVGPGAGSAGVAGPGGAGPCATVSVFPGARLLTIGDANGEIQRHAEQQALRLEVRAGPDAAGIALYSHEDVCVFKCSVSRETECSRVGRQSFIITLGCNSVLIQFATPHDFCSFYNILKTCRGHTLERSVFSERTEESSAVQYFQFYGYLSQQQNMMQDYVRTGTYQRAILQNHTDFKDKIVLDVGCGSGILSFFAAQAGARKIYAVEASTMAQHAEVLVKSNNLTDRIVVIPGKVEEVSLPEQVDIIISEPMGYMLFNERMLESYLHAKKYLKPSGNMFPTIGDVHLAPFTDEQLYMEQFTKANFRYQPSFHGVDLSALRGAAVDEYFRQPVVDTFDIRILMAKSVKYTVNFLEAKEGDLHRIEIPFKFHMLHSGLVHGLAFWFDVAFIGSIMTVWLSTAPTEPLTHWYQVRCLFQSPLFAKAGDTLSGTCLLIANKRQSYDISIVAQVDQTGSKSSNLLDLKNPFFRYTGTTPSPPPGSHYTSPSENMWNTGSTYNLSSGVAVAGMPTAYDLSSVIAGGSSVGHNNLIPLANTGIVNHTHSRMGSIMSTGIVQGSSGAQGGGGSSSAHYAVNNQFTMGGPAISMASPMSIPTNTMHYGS

B1: Gal4 DBD-GRIP1 amino acids 1121-1210 (N-terminal fragment of GRIP1c bisected between 1210 and 1211) (other, UniProt P04386 1-147, looked up)
chain: MKLLSSIEQACDICRLKKLKCSKEKPKCAKCLKNNWECRYSPKTKRSPLTRAHLTEVESRLERLEQLFLLIFPREDLDMILKMDSLQDIKALLTGLFVQDNVNKDAVTDRLASVETDMPLTLRQHRISATSSSEESSNKGQRQLTVSESSIMLEQKPPVFPQQYASQAQMAQGGYNPMQDPNFHTMGQRPNYTTLRMQPRPGLRPTGIVQNQPNQLRLQLQHRLQAQQNRQPLMNQI
notes: also called the N-terminal fragment
B2: Gal4 DBD-GRIP1c N-terminal fragment ending at amino acid 1305 (GRIP1c bisected between 1305 and 1306) (other, UniProt P04386 1-147, looked up)
chain: MKLLSSIEQACDICRLKKLKCSKEKPKCAKCLKNNWECRYSPKTKRSPLTRAHLTEVESRLERLEQLFLLIFPREDLDMILKMDSLQDIKALLTGLFVQDNVNKDAVTDRLASVETDMPLTLRQHRISATSSSEESSNKGQRQLTVSSSIMLEQKPPVFPQQYASQAQMAQGGYNPMQDPNFHTMGQRPNYTTLRMQPRPGLRPTGIVQNQPNQLRLQLQHRLQAQQNRQPLMNQISSVSNVNLTLRPGVPTQAPINAQMLAQRQREILNQHLRQRQMQQQVQQRTLMMRGQGLNVTPSMVAPAGLPAAMSNPRIPQANAQQFPFPPNYGI
B3: Gal4 DBD-GRIP1 1211-1462 (C-terminal fragment of GRIP1c bisected between 1210 and 1211) (other, UniProt P04386 1-147, looked up)
chain: MKLLSSIEQACDICRLKKLKCSKEKPKCAKCLKNNWECRYSPKTKRSPLTRAHLTEVESRLERLEQLFLLIFPREDLDMILKMDSLQDIKALLTGLFVQDNVNKDAVTDRLASVETDMPLTLRQHRISATSSSEESSNKGQRQLTVSSSVSNVNLTLRPGVPTQAPINAQMLAQRQREILNQHLRQRQMQQQVQQRTLMMRGQGLNVTPSMVAPAGLPAAMSNPRIPQANAQQFPFPPNYGISQQPDPGFTGATTPQSPLMSPRMAHTQSPMMQQSQANPAYQPTSDMNGWAQGSMGGNSMFSQQSPPHFGQQANTSMYSNNMNISVSMATNTGGLSSMNQMTGQMSMTSVTSVPTSGLPSMGPEQVNDPALRGGNLFPNQLPGMDMIKQEGDASRKYC
notes: also called the C-terminal fragment
B4: GRIP1 amino acids 730-1121, translated in vitro (other, UniProt Q61026 730-1121, looked up)
chain: VKQEPASPKKKENALLRYLLDKDDTKDIGLPEITPKLERLDSKTDPASNTKLIAMKTVKEEVSFEPSDQPGSELDNLEEILDDLQNSQLPQLFPDTRPGAPTGSVDKQAIINDLMQLTADSSPVPPAGAQKAALRMSQSTFNNPRPGQLGRLLPNQNLPLDITLQSPTGAGPFPPIRNSSPYSVIPQPGMMGNQGMLGSQGNLGNNSTGMIGSSTSRPSMPSGEWAPQSPAVRVTCAATTGAMNRPVQGGMIRNPTASIPMRANSQPGQRQMLQSQVMNIGPSELEMNMGGPQYNQQQAPPNQTAPWPESILPIDQASFASQNRQPFGSSPDDLLCPHPAAESPSDEGALLDQLYLALRNFDGLEEIDRALGIPELVSQSQAVDAEQFSSQE
notes: range 730-1121; also called GRIP1 (730-1121); not shown: translation start and HA tag encoded by pSG5.HA
B5: Gal4 DBD-GRIP1 fragment 1211-1350 (other, UniProt P04386 1-147, looked up)
chain: MKLLSSIEQACDICRLKKLKCSKEKPKCAKCLKNNWECRYSPKTKRSPLTRAHLTEVESRLERLEQLFLLIFPREDLDMILKMDSLQDIKALLTGLFVQDNVNKDAVTDRLASVETDMPLTLRQHRISATSSSEESSNKGQRQLTVSSSVSNVNLTLRPGVPTQAPINAQMLAQRQREILNQHLRQRQMQQQVQQRTLMMRGQGLNVTPSMVAPAGLPAAMSNPRIPQANAQQFPFPPNYGISQQPDPGFTGATTPQSPLMSPRMAHTQSPMMQQSQANPAYQPTSD
B6: Gal4 DBD-GRIP1c (GRIP1 1122-1462) (other, UniProt P04386 1-147, looked up)
chain: MKLLSSIEQACDICRLKKLKCSKEKPKCAKCLKNNWECRYSPKTKRSPLTRAHLTEVESRLERLEQLFLLIFPREDLDMILKMDSLQDIKALLTGLFVQDNVNKDAVTDRLASVETDMPLTLRQHRISATSSSEESSNKGQRQLTVSSSIMLEQKPPVFPQQYASQAQMAQGGYNPMQDPNFHTMGQRPNYTTLRMQPRPGLRPTGIVQNQPNQLRLQLQHRLQAQQNRQPLMNQISSVSNVNLTLRPGVPTQAPINAQMLAQRQREILNQHLRQRQMQQQVQQRTLMMRGQGLNVTPSMVAPAGLPAAMSNPRIPQANAQQFPFPPNYGISQQPDPGFTGATTPQSPLMSPRMAHTQSPMMQQSQANPAYQPTSDMNGWAQGSMGGNSMFSQQSPPHFGQQANTSMYSNNMNISVSMATNTGGLSSMNQMTGQMSMTSVTSVPTSGLPSMGPEQVNDPALRGGNLFPNQLPGMDMIKQEGDASRKYC
notes: One entry covers both the yeast bait (pGBT9) and the mammalian vector (pM) fusion; also called pGBT9.GRIP1c; pM.GRIP1c
B7: GST-CARM1 (enzyme)
chain: T1 sequence
notes: also called GST fusion protein of CARM1; glutathione S-transferase-CARM1; not shown: glutathione S-transferase (GST) as encoded by vector pGEX-4T1 (Pharmacia)
B8: Gal4 DBD-GRIP1c C-terminal fragment starting at amino acid 1306 (GRIP1c bisected between 1305 and 1306) (other, UniProt P04386 1-147, looked up)
chain: MKLLSSIEQACDICRLKKLKCSKEKPKCAKCLKNNWECRYSPKTKRSPLTRAHLTEVESRLERLEQLFLLIFPREDLDMILKMDSLQDIKALLTGLFVQDNVNKDAVTDRLASVETDMPLTLRQHRISATSSSEESSNKGQRQLTVSSQQPDPGFTGATTPQSPLMSPRMAHTQSPMMQQSQANPAYQPTSDMNGWAQGSMGGNSMFSQQSPPHFGQQANTSMYSNNMNISVSMATNTGGLSSMNQMTGQMSMTSVTSVPTSGLPSMGPEQVNDPALRGGNLFPNQLPGMDMIKQEGDASRKYC

Key:
[1] = molecular target: T1, CARM1 fused to Gal4AD (pGAD10.CARM1); experiment: yeast two-hybrid, β-galactosidase activity
Protocol: (§1) Sub-fragments of the GRIP1 C-terminal domain (GRIP lc), fused with the Gal4 DBD, were tested in the yeast two-hybrid system as described previously (Ding, X. F. et al. (1998) Mol. Endocrinol. 12:302) for binding to CARM1 or to α-actinin, fused to Gal4AD. β-galactosidase (β-gal) activity indicates interaction between the two hybrid proteins.

GST-CARM1 = molecular target: B7; experiment: GST pull-down on glutathione agarose beads, labeled in vitro translated fragment, SDS-PAGE
Protocol: (§2) The binding of GRIP1c to CARM1 observed in the yeast two-hybrid system was confirmed in vitro, by incubating glutathione S-transferase (GST) fusion proteins attached to glutathione agarose beads with labeled proteins or protein fragments translated in vitro. […] Conversely, GST-GRIP1c bound CARM1 and the VLD to AAA mutant of CARM1 (FIG. 3B). GST-CARM1 not only bound GRIP1 but also the other two members of the p160 coactivator family, SRC-1a and ACTR (FIG. 3A). […] GST fusion proteins of CARM1 or the indicated GRIP1 fragments produced in E. coli strain BL21 (Stratagene), were bound to glutathione-agarose beads and incubated with labeled full length CARM1 or p160 coactivators or GRIP1 fragments translated in vitro from vector pSG5.HA-CARM1, pSG5.HA-GRIP1, pSG5.HA-SRC-1a (Chen, D. et al. 1999), or pCMX.ACTR (Chen et al. 1997); bound labeled proteins were eluted and analyzed by SDS polyacrylamide gel electrophoresis as described previously (Hong et al. 1996). A mutant form of CARM1 with the triple amino acid substitution (VLD changed to AAA) shown in FIG. 1 still retains the ability to bind to the C-terminal fragment of GRIP1.

[2] = molecular target: T1, CARM1 fused to Gal4AD (pGAD10.CARM1); experiment: yeast two-hybrid, β-galactosidase activity (figure legend)
Protocol: as §1

[3] = molecular target: T2, GRIP1 amino acids 5-765, translated in vitro (UniProt Q61026 5-765); experiment: GST pull-down on glutathione agarose beads, labeled in vitro translated fragment, SDS-PAGE
T2 construct: range 5-765; also called GRIP1 (5-765); not shown: translation start and HA tag encoded by pSG5.HA
Protocol: as §2

T2 sequence (Q61026 5-765): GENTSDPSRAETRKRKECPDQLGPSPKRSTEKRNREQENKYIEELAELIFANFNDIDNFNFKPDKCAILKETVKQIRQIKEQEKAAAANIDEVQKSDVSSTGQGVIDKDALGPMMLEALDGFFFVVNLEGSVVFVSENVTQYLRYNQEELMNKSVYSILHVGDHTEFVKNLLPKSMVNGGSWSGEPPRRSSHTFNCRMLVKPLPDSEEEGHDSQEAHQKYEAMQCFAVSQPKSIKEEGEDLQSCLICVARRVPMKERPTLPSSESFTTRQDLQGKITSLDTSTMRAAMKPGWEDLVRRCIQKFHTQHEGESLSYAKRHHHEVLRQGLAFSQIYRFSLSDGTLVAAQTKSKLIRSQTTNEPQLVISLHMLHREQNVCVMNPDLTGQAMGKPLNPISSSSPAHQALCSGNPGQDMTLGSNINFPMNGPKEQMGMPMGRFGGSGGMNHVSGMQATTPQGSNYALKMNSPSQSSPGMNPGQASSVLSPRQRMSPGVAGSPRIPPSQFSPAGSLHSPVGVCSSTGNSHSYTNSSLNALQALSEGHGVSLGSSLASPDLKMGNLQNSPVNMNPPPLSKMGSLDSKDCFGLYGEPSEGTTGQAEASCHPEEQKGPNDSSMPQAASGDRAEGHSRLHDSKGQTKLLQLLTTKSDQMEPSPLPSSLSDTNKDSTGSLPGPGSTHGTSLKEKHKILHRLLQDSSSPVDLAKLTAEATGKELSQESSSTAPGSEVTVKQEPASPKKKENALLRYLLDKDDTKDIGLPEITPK

Binder	binding result [1]	other results
B1	no binding	
B2	no binding	
B3	binds	
B4		binding result (GST-CARM1): no binding
B5	binds	
B6		binding result [2]: binds
B7		binding result [3]: no binding
B8	no binding	
